Laboratory results published in US20210095004.

Tests used:
truncated Aca cand27 = biological target: T1, truncated Aca cand27
T1 chain: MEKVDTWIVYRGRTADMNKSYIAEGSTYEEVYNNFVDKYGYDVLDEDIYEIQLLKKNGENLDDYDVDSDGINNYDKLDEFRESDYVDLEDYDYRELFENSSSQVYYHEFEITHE

truncated Aca cand9 = biological target: T2, truncated Aca cand9
T2 chain: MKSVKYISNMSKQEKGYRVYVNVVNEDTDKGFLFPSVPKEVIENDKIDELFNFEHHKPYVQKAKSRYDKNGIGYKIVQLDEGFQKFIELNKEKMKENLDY

Aca cand9 = biological target: T3, Aca cand9
T3 chain: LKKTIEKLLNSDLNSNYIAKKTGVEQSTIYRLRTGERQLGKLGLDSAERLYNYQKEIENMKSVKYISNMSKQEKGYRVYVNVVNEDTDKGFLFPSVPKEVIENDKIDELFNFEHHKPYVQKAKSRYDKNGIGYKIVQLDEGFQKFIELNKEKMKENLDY

Aca cand27 = biological target: T4, Aca cand27
T4 chain: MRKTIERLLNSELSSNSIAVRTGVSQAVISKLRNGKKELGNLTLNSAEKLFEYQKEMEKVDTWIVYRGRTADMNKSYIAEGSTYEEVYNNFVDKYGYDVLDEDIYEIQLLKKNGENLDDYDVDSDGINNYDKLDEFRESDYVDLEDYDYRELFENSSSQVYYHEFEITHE

B1: Staphylococcus aureus Cas9 (protein)
chain: MKRNYILGLDIGITSVGYGIIDYETRDVIDAGVRLFKEANVENNEGRRSKRGARRLKRRRRHRIQRVKKLLFDYNLLTDHSELSGINPYEARVKGLSQKLSEEEFSAALLHLAKRRGVHNVNEVEEDTGNELSTKEQISRNSKALEEKYVAELQLERLKKDGEVRGSINRFKTSDYVKEAKQLLKVQKAYHQLDQSFIDTYIDLLETRRTYYEGPGEGSPFGWKDIKEWYEMLMGHCTYFPEELRSVKYAYNADLYNALNDLNNLVITRDENEKLEYYEKFQIIENVFKQKKKPTLKQIAKEILVNEEDIKGYRVTSTGKPEFTNLKVYHDIKDITARKEIIENAELLDQIAKILTIYQSSEDIQEELTNLNSELTQEEIEQISNLKGYTGTHNLSLKAINLILDELWHTNDNQIAIFNRLKLVPKKVDLSQQKEIPTTLVDDFILSPVVKRSFIQSIKVINAIIKKYGLPNDIIIELAREKNSKDAQKMINEMQKRNRQTNERIEEIIRTTGKENAKYLIEKIKLHDMQEGKCLYSLEAIPLEDLLNNPFNYEVDHIIPRSVSFDNSFNNKVLVKQEENSKKGNRTPFQYLSSSDSKISYETFKKHILNLAKGKGRISKTKKEYLLEERDINRFSVQKDFINRNLVDTRYATRGLMNLLRSYFRVNNLDVKVKSINGGFTSFLRRKWKFKKERNKGYKHHAEDALIIANADFIFKEWKKLDKAKKVMENQMFEEKQAESMPEIETEQEYKEIFITPHQIKHIKDFKDYKYSHRVDKKPNRELINDTLYSTRKDDKGNTLIVNNLNGLYDKDNDKLKKLINKSPEKLLMYHHDPQTYQKLKLIMEQYGDEKNPLYKYYEETGNYLTKYSKKDNGPVIKKIKYYGNKLNAHLDITDDYPNSRNKVVKLSLKPYRFDVYLDNGVYKFVTVKNLDVIKKENYYEVNSKCYEEAKKLKKISNQAEFIASFYNNDLIKINGELYRVIGVNNDLLNRIEVNMIDITYREYLENMNDKRPPRIIKTIASKTQSIKKYSTDILGNLYEVKSKKHPQIIKKG
- SauCas9/guide RNA-mediated cleavage of target DNA in vitro (FIG. 2C) (truncated Aca cand27): inhibited SauCas9/guide RNA-mediated cleavage of target DNA at truncated Acr:SauCas9 molar ratios of 5:1, 10:1, and 20:1
- SauCas9/guide RNA-mediated cleavage of target DNA in vitro (FIG. 2B) (truncated Aca cand9): inhibited SauCas9/guide RNA-mediated cleavage of target DNA at truncated Acr:SauCas9 molar ratios of 5:1, 10:1, and 20:1
- SauCas9-mediated cleavage of target DNA in vitro (FIG. 1) (Aca cand9): inhibited SauCas9-mediated cleavage of target DNA at Acr:SauCas9 molar ratios of 10:1 and 20:1
- SauCas9-mediated cleavage of target DNA in vitro (FIG. 1) (Aca cand27): inhibited SauCas9-mediated cleavage of target DNA at Acr:SauCas9 molar ratios of 10:1 and 20:1
